# Results published in patent publication US7105488B1, “G protein-coupled receptor antagonists” (priority 1998, dated 2006).
# Where a SMILES comes first, the peptide text is derived from it. Where no end group is shown, it is not given here. rhodamine = not defined here; Rhod = not defined here
# B1: CCKAR-TM-1-6 (peptide)
# peptide: DDEWQSALQILLYSIIFLLSVLGNTLVITV
# notes: Synthetic peptide from the first transmembrane domain of rat CCKAR
# B2: F-5-1 (peptide)
# peptide: HIMVGLILPGIVILSCYCIII-NH2
# modifications: cysteine pairing not given here
# B3: CCKAR-TM-2-1 (peptide)
# peptide: FLLSLAVSDLMLCLFCMPFNLP
# notes: also called CCKAR-2-1; CCKAR-TN-2-1
# B4: AcF-2-5 (peptide)
# peptide: Ac-LLFVITLPFWAVDAVANDD
# B5: F-2-4 (peptide)
# peptide: VITLPFWAVDAVANWYFGNKK
# B6: F-2-1 (peptide)
# peptide: LLFVITLPFWAVDAVANWYFGN
# B7: CCKAR-TM-6-4 (#77) (peptide)
# peptide: IVVLFFLCWMPIFSANAWRAYDTVDD
# B8: Rhod - AcF-2-2 (peptide)
# peptide: Ac-LLFVITLPFWAVDAVANWYFGNDDK(Rhod)D
# modifications: reading uncertain
# B9: CCKAR-TM-5-3 (#45) (peptide)
# peptide: DDQTFLLLILFLLPGIVMVVAYGL
# B10: F-4-2 (peptide)
# peptide: VYVGVWIPALLLTIPDFIFANDD
# B11: F-2-8 (peptide)
# peptide: LLFVITLPFWAVDAVANWYFGNKK
# B12: F-6-1 (peptide)
# peptide: VILILAFFACWLPYYIGISID
# B13: F-2-6 (peptide)
# peptide: LSVADLLFVITLPFWAVDAVANDD
# B14: F-7-1 (peptide)
# peptide: ALAFFHCCLNPILYAFLGAK-NH2
# modifications: cysteine pairing not given here
# B15: F-4-1 (peptide)
# peptide: KVYVGVWIPALLLTIPDFIF
# B16: CCKAR-TM-4-2 (#71) (peptide)
# peptide: VIAATWCLSFTIMTPYPIYSNLVPFTDD
# B17: F-2-2 (peptide)
# peptide: LLFVITLPFWAVDAVANWYFGNDD
# B18: F-2-5 (peptide)
# peptide: LLFVITLPFWAVDAVANDD
# Columns and labels:
# CXCR4 receptor [1] = target: CXCR4 receptor (Homo sapiens, UniProt P61073); experiment: Inhibition of SDF-1α-induced intracellular calcium release (Fura-2/AM) in HeLa and U87 cells; assay type: cell-based; details: for Decrease in antagonist potency relative to F-2-2: structure-activity of TM2 peptides
# CXCR4 receptor (Homo sapiens, UniProt P61073), sequence (P61073 whole entry): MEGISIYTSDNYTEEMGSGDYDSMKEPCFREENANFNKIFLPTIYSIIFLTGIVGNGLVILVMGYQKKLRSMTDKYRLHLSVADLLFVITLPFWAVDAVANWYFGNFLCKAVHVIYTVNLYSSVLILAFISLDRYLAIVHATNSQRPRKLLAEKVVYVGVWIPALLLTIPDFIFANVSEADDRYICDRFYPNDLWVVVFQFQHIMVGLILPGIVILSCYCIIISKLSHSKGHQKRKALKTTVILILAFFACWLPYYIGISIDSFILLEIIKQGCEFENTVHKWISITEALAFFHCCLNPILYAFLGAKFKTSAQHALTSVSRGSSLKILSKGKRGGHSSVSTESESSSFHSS
# Protocol: The effect of the peptides on CXCR4-mediated calcium fluxes in HeLa cells that naturally express the CXCR4 receptor and U87 cells stably expressing the CXCR4 receptor was tested as follows. Cells grown on Nunc cover glass chamber slides were incubated with 1 micromolar Fura-2/AM for 20 min in a CO2-incubator, rinsed with PBS and mounted on the stage of a Zeiss Axiovert inverted microscope. [Ca^2+]i measurements were performed using an Attofluor digital imaging system (Atto Instruments, Rockville, Md.). Fluorescence of Fura was excited at alternating wavelength of 340 and 380 nm. […] Calibrations of [Ca^2+]i signals were performed using Ca^2+ standards containing 1 micromolar Fura. CXCR4 antagonists were tested on HeLa cells and U87 cells. Stromal cell-derived factor-1α (SDF-1α) was used as a specific CXCR4 agonist. CCR5 antagonists, which were used in selectivity studies as described below, were tested on HEK (human kidney […]) cells stably expressing the CCR5 receptor and RANTES was used as an agonist. The antagonist activity of the peptides was evaluated by measuring the inhibition of agonist-evoked intracellular Ca^2+i release. These measurements were carried out in Fura-2/AM-treated cells, utilizing an Attofluor digital imaging system as described above. The agonist was SDF-1 α.
# [2] = target: T1, rat cholecystokinin receptor type A (CCKAR) (rat, UniProt P30551 1-444); experiment: cell-based or functional assay
# T1 sequence (looked up): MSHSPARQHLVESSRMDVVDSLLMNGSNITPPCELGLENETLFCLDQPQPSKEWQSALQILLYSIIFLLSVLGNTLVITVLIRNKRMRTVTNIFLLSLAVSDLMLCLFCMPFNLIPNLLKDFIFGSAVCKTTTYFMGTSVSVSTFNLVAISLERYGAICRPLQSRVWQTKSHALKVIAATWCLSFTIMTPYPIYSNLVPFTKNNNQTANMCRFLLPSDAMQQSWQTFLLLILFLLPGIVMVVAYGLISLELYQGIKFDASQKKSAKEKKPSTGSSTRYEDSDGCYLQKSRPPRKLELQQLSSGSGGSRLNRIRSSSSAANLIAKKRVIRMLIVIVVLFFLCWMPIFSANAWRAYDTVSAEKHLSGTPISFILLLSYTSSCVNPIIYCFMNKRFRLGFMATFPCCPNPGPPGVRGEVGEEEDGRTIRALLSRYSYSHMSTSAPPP
# [3] = target: T1, rat cholecystokinin receptor type A …; experiment: inhibition of binding of fluorescent agonist RG-CCK-8 to CHO cells expressing rat CCKAR, quantitative confocal laser scanning microscopy
# Protocol: None of CCKAR-derived peptides served as antagonists of chemokine receptors and none could inhibit HIV-1 infection. The activity of the antagonists in inhibiting signaling through the receptor was compared to the ability to prevent agonist binding (Table 4). Inhibition of signaling was assessed in CCK-8 evoked intracellular calcium release in FURA-2/AM treated CHO cells stably transfected with rat CCKAR (Tarasova, et al. (1997) *J. Biol. Chem.* 272:14817). Inhibition of ligand binding was measured with the use of a fluorescent agonist, rhodamine green CCK-8 (RG-CCK-8) and quantitative confocal laser scanning microscopy (Tarasova, et al. (1997) *J. Biol. Chem.* 272:14817). Peptides derived from the first, second, and sixth transmembrane domains inhibited CCK-induced signaling through the CCKAR receptor. […] A peptide derived from the sixth domain, CCKAR-6-1, was active in inhibition of signaling, but had very low activity in inhibition of RG-CCK-8 binding.
# CXCR4 receptor [4] = target: T2, CXCR4 receptor (UniProt P61073 1-352, limits assumed); experiment: cell-based or functional assay
# T2 sequence (P61073 whole entry): as the sequence (P61073 whole entry) above
# CXCR4 receptor [5] = target: T2, CXCR4 receptor; experiment: cell-based or functional assay; remark: listed apart in the source
# CXCR4 receptor [6] = target: T2, CXCR4 receptor; experiment: cell-based or functional assay; remark: listed apart in the source
# CXCR4 receptor [7] = target: T2, CXCR4 receptor; experiment: cell-based or functional assay; remark: listed apart in the source
molecule,measurement,setting,value
LLFVITLPFWAVDAVANWYFGNKK (F-2-8 GPCR CXCR4) [Peptide F-2-8],"Concentration, required for complete inhibition of [Ca^2+I] release","CXCR4 receptor [1]; TM2-derived peptides, Table 3",20 µM
CC[C@H](C)[C@H](NC(=O)CNC(=O)[C@@H](NC(=O)[C@H](Cc1ccc(O)cc1)NC(=O)[C@H](Cc1ccc(O)cc1)NC(=O)[C@@H]1CCCN1C(=O)[C@H](CC(C)C)NC(=O)[C@H](Cc1c[nH]c2ccccc12)NC(=O)[C@H](CS)NC(=O)[C@H](C)NC(=O)[C@H](Cc1ccccc1)NC(=O)[C@H](Cc1ccccc1)NC(=O)[C@H](C)NC(=O)[C@H](CC(C)C)NC(=O)[C@@H](NC(=O)[C@H](CC(C)C)NC(=O)[C@@H](NC(=O)[C@@H](N)C(C)C)[C@@H](C)CC)[C@@H](C)CC)[C@@H](C)CC)C(=O)N[C@@H](CO)C(=O)N[C@H](C(=O)N[C@@H](CC(=O)O)C(=O)O)[C@@H](C)CC [Peptide F-6-1] (H-VILILAFFACWLPYYIGISID-OH; N-terminus and C-terminus assumed),"Concentration, required for inhibition of signal transduction","CXCR4 receptor [1]; SDF-1α-induced intracellular calcium release, Table 2",10 µM
DDIFLPTIYSIIFLTGIV-HN2 (DDIFLPTIYSIIFLTGIV-NH2) [Peptide F-1-5],"Concentration, required for complete inhibition of [Ca^2+I] release","CXCR4 receptor [1]; SDF-1α-induced, Table 1",>30 µM
LLFVITLPFWAVDAVANWYFGN (F-2-1 GPCR CXCR4) [Peptide F-2-1],"Concentration, required for complete inhibition of [Ca^2+I] release","CXCR4 receptor [1]; TM2-derived peptides, Table 3",5 µM
same,Decrease in antagonist potency relative to F-2-2,CXCR4 receptor [1],more than ten-fold
VITLPFWAVDAVANWYFGNKK (F-2-4 GPCR CXCR4) [Peptide F-2-4],"Concentration, required for complete inhibition of [Ca^2+I] release","CXCR4 receptor [1]; TM2-derived peptides, Table 3",>50 µM
same,Decrease in antagonist potency relative to F-2-2,CXCR4 receptor [1],20 fold
AcLLFVITLPFWAVDAVANWYFGNDDK(Rhod)D (Ac-LLFVITLPFWAVDAVANWYFGNDDK(rhodamine)D; reading uncertain) [Rhod - AcF-2-2],"Concentration, required for complete inhibition of [Ca^2+I] release","CXCR4 receptor [1]; TM2-derived peptides, Table 3",8 µM
KVYVGVWIPALLLTLPDFIF (KVYVGVWIPALLLTIPDFIF; F-4-1 GPCR CXCR4) [Peptide F-4-1],"Antagonist activity on CXCR4 signaling, in words",CXCR4 receptor [1],abolished the antagonist activity
same,"Concentration, required for complete inhibition of [Ca^2+I] release","CXCR4 receptor [1]; SDF-1α-induced, Table 1",>50 µM
LLFVITLPFWAVDAVANDD (F-2-5 GPCR CXCR4) [Peptide F-2-5],"Concentration, required for complete inhibition of [Ca^2+I] release","CXCR4 receptor [1]; TM2-derived peptides, Table 3",10 µM
KAVHVIYTVNLYSSVLILAFISL-NH2 [Peptide F-3-1],"Concentration, required for complete inhibition of [Ca^2+I] release","CXCR4 receptor [1]; SDF-1α-induced, Table 1",>50 µM
B1,"Concentration, required for inhibition of signaling (CCK-8-induced intracellular calcium release)",[2],50 µM
same,IC50,[3],20000 nM
B2,"Concentration, required for complete inhibition of [Ca^2+I] release (SDF-1α-induced)",CXCR4 receptor [4],> 50 µM
B3,"Concentration, required for inhibition of signaling (CCK-8-induced intracellular calcium release)",[2],2 µM
same,IC50,[3],500 nM
B4,"Concentration, required for complete inhibition of [Ca^2+I] release",CXCR4 receptor [5],10 µM
B5,"Concentration, required for complete inhibition of [Ca^2+I] release",CXCR4 receptor [5],> 50 µM
B6,antagonist potency relative to F-2-2,CXCR4 receptor [6],> 10 fold
same,"Concentration, required for complete inhibition of [Ca^2+I] release (SDF-1α-induced)",CXCR4 receptor [4],5 µM
same,"Concentration, required for complete inhibition of [Ca^2+I] release",CXCR4 receptor [5],5 µM
B7,"Concentration, required for inhibition of signaling (CCK-8-induced intracellular calcium release)",[2],5 µM
same,IC50,[3],> 50000 nM
B8,"Concentration, required for complete inhibition of [Ca^2+I] release",CXCR4 receptor [5],8 µM
B9,"Concentration, required for inhibition of signaling (CCK-8-induced intracellular calcium release)",[2],> 50 µM
B10,"Concentration, required for inhibition of signal transduction (µM) (SDF-1α-induced intracellular calcium release)",CXCR4 receptor [7],5 µM
same,"EC50 in anti-HIV-1 assay (µM) (cytoprotection, CEM-SS cells infected with HIV-1RF)",CXCR4 receptor [7],0.3 µM
B11,antagonist activity relative to F-2-2,CXCR4 receptor [6],100 fold
same,"Concentration, required for complete inhibition of [Ca^2+I] release",CXCR4 receptor [5],20 µM
B12,"Concentration, required for complete inhibition of [Ca^2+I] release (SDF-1α-induced)",CXCR4 receptor [4],10 µM
same,"Concentration, required for inhibition of signal transduction (µM) (SDF-1α-induced intracellular calcium release)",CXCR4 receptor [7],10 µM
same,"EC50 in anti-HIV-1 assay (µM) (cytoprotection, CEM-SS cells infected with HIV-1RF)",CXCR4 receptor [7],> 50 µM
B13,"Concentration, required for complete inhibition of [Ca^2+I] release",CXCR4 receptor [5],20 µM
B14,"Concentration, required for complete inhibition of [Ca^2+I] release (SDF-1α-induced)",CXCR4 receptor [4],> 100 µM
B15,"Concentration, required for complete inhibition of [Ca^2+I] release (SDF-1α-induced)",CXCR4 receptor [4],> 50 µM
B16,"Concentration, required for inhibition of signaling (CCK-8-induced intracellular calcium release)",[2],> 50 µM
B17,"Concentration, required for inhibition of signal transduction (µM) (SDF-1α-induced intracellular calcium release)",CXCR4 receptor [7],0.2 µM
same,"EC50 in anti-HIV-1 assay (µM) (cytoprotection, CEM-SS cells infected with HIV-1RF)",CXCR4 receptor [7],2.27 µM
same,"Concentration, required for complete inhibition of [Ca^2+I] release",CXCR4 receptor [5],0.2 µM
B18,potency relative to F-2-2,CXCR4 receptor [6],20 fold
same,"Concentration, required for complete inhibition of [Ca^2+I] release",CXCR4 receptor [5],10 µM
